Molecular target: T1, Full-length human TIP47/perilipin-3 (human), O60664
T1 chain: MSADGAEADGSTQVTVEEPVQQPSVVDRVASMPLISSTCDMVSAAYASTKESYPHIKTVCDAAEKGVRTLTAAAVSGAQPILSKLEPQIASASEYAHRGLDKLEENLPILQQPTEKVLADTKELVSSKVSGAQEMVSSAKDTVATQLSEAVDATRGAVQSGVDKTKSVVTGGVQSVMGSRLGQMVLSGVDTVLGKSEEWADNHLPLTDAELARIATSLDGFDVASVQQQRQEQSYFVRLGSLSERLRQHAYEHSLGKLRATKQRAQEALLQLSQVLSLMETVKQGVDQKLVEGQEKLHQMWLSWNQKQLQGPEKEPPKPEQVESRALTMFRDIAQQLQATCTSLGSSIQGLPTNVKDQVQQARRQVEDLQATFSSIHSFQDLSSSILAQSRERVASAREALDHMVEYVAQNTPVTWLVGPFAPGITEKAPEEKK
Test: SEC-MALS
Details: remark: other sources report otherwise

B1: Full-length human TIP47/perilipin-3, O60664 1-434 (natural protein)
chain: MSADGAEADGSTQVTVEEPVQQPSVVDRVASMPLISSTCDMVSAAYASTKESYPHIKTVCDAAEKGVRTLTAAAVSGAQPILSKLEPQIASASEYAHRGLDKLEENLPILQQPTEKVLADTKELVSSKVSGAQEMVSSAKDTVATQLSEAVDATRGAVQSGVDKTKSVVTGGVQSVMGSRLGQMVLSGVDTVLGKSEEWADNHLPLTDAELARIATSLDGFDVASVQQQRQEQSYFVRLGSLSERLRQHAYEHSLGKLRATKQRAQEALLQLSQVLSLMETVKQGVDQKLVEGQEKLHQMWLSWNQKQLQGPEKEPPKPEQVESRALTMFRDIAQQLQATCTSLGSSIQGLPTNVKDQVQQARRQVEDLQATFSSIHSFQDLSSSILAQSRERVASAREALDHMVEYVAQNTPVTWLVGPFAPGITEKAPEEKK
Question: For B1, which stoichiometry N is on record?
Answer: 2

Source: article PMC3393791
